{
  "source": "paper PMC3985956",
  "about": "(Biochemistry, 2014)",
  "proteins": {"B1": {"name": "CheA, full length, purified, for reconstitution with Tsr membranes (enzyme)", "chain": "MSMDISDFYQTFFDEADELLADMEQHLLVLQPEAPDAEQLNAIFRAAHSIKGGAGTFGFSVLQETTHLMENLLDEARRGEMQLNTDIINLFLETKDIMQEQLDAYKQSQEPDAASFDYICQALRQLALEAKGETPSAVTRLSVVAKSEPQDEQSRSQSPRRIILSRLKAGEVDLLEEELGHLTTLTDVVKGADSLSAILPGDIAEDDITAVLCFVIEADQITFETVEVSPKISTPPVLKLAAEQAPTGRVEREKTTRSNESTSIRVAVEKVDQLINLVGELVITQSMLAQRSSELDPVNHGDLITSMGQLQRNARDLQESVMSIRMMPMEYVFSRYPRLVRDLAGKLGKQVELTLVGSSTELDKSLIERIIDPLTHLVRNSLDHGIELPEKRLAAGKNSVGNLILSAEHQGGNICIEVTDDGAGLNRERILAKAASQGLTVSENMSDDEVAMLIFAPGFSTAEQVTDVSGRGVGMDVVKRNIQKMGGHVEIQSKQGTGTTIRILLPLTLAILDGMSVRVADEVFILPLNAVMESLQPREADLHPLAGGERVLEVRGEYLPIVELWKVFNVAGAKTEATQGIVVILQSGGRRYALLVDQLIGQHQVVVKNLESNYRKVPGISAATILGDGSVALIVDVSALQAINREQRMANTAA"}},
  "target": "the molecule itself",
  "assay": "electron cryotomography with subvolume averaging",
  "data": [
    {"protein": "B1", "values": [
      {"measurement": "binding result", "result": "binds"}
    ]}
  ]
}
